According to the nanobody polyreactivity screen of Harvey et al. (2022):

Experiment: yeast display, Sf9 membrane polyspecificity reagent, FACS + sequencing; frameworks hold sequencing errors
Outline: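 Polyreactivity labels are assigned by the sorting gate from which each nanobody was recovered. The gates were low and high (top ~1%), set on anti-HA fluorescence for expression and streptavidin fluorescence for reagent binding. Before sorting, galactose-induced (36–48 hours) yeast display cells were stained for 1 hour at 4 °C with 10% biotinylated, detergent-solubilized Sf9 membrane reagent.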

Sequence: QVQLVESGGGLVQAGGSLRLSCAASGLTFNYYAMGWYRQPPGKESELVAAITSSGGRTYYADSVKGRFTISRDNAKNTGYLQMNSLKPEDTAVYYCNTVSYRLGAVWFSYDYWGQGTQVTVSS
- polyreactivity (PSR sort gate): high polyreactivity

Sequence: QVQLVESGGGLVQAGGSLRLSCAASGLTFPFYAMGWYRQAPGKERELVAAITGSGGITYYADSVKGRFTISRDNAKNTVYLQMNSLKPEETAVYYCAFDYTYYTSFVPLFGFDYWGQGTQVTVSS
- polyreactivity (PSR sort gate): low polyreactivity

Sequence: QVQLVESGGGLVQAGGSLRLSCAASGLTFPLYAMGWYRQAPGKEREFVAAITVSGVSTSYADSEKGRFTISRDIAKITVYLQMNSLKPEDTAVYYCAADYYIWTYWDVYYWGQGTQVTVSS
- polyreactivity (PSR sort gate): high polyreactivity

Sequence: QVQLVESGGGLVQAGGSLRLSCAASGLTFPSYAMGWYRQAPGKERELVASISSGGSTTYADSVKGRFTISRDNAKNTVYLQMNSLKPEDTAVYYCAAGRYVLRRGYYYWGQGTQVTVSS
- polyreactivity (PSR sort gate): high polyreactivity

Sequence: QVQLVESGGGLVQAGGSLRLSCAASGLTFPWYAMGWYRQAPGKERELVAGISWSGGSTYYADSVKGRFTNSRDNAKNTVYLQMNSLKPEDTAVYYCKLVKTTSTLGKRRYDYWGQGTQVTVSS
- polyreactivity (PSR sort gate): high polyreactivity

Sequence: QVQLVESGGGLVQAGGSLRLSCAASGLTFPYYAMGWYRKAPGKERELVAGISDSGGSTYYADSVKGRFTISRDNAKNTVYLQMNSLKPEDTAVYYCAAQGVDSYYENDYWGQGTQVTVSS
- polyreactivity (PSR sort gate): high polyreactivity

Sequence: QVQLVESGGGLVQAGGSLRLSCAASGLTFPYYAMGWYRQAPGKEREFVAAISRGGGRTSYADSVKGRFTISRDNAKNTVYLQMNSLKPEDTAVYYCAADDPGWYSDLYYYWGLGTQVTVSS
- polyreactivity (PSR sort gate): high polyreactivity

Sequence: QVQLVESGGGLVQAGGSLRLSCAASGLTFPYYAMGWYRQAPGKERELVAAISGGGRTYYADSVMGRFTISRDNAKNTVYLQMNSLKPEDTAVYYCAPFHVGRYTGTVTDGYDYWGQGTQVTVSS
- polyreactivity (PSR sort gate): high polyreactivity

Sequence: QVQLVESGGGLVQAGGSLRLSCAASGLTFQENAMGWYRQAPGKERELVASITPIGGSTYYADSVKGRFTISRDNAKNTVYLQMKSLKPEDTAVYYCAARSPIYATYGHDYWGQATQVTVSS
- polyreactivity (PSR sort gate): low polyreactivity

Sequence: QVQLVESGGGLVQAGGSLRLSCAASGLTFQENGMGGYRQAPGKERELVASITTIGGSTYYADSVKGRFTISRDNAKNTVYLQMKSLKPEDTAVYYCAALSPIYATYGHDYWGQGTQVTVSS
- polyreactivity (PSR sort gate): low polyreactivity

Sequence: QVQLVESGGGLVQAGGSLRLSCAASGLTFQSYVMGWYRPAPGKERELVAAISWSGTRTYFADSVKGRFTISRDNAKNTVYLQMYSLKPEDTAVYSCAADFYTWYEERYWSYNYWGQGTQVTVSS
- polyreactivity (PSR sort gate): high polyreactivity

Sequence: QVQLVESGGGLVQAGGSLRLSCAASGLTFQWYAMGWYRQAPGKERELVAAISSRGGSTYYADSVKGRFTISRDNAKNTVYLQMNSLKPVDTAVYYCAVYTIGYLAWYQKFDYWGQGTQVTVSS
- polyreactivity (PSR sort gate): high polyreactivity

Sequence: QVQLVESGGGLVQAGGSLRLSCAASGLTFRGNVMGWYRQAPGKERELVAAISRSGNTYYADSVKGRFTISRDNAKNTVYLQMNSLKPEDTAVYYCAAQSVRWYSSFKYYYWGQGTQVTVSS
- polyreactivity (PSR sort gate): high polyreactivity

Sequence: QVQLVESGGGLVQAGGSLRLSCAASGLTFRKNAMGWYRQAPGKERELVAGISSGGSTYYADSVKGRFTISRDNAKNTVYLQMNSLKPEDTAVYYCGANALRTMYYWGQGTQVNVSS
- polyreactivity (PSR sort gate): high polyreactivity

Sequence: QVQLVESGGGLVQAGGSLRLSCAASGLTFRLNAMGWYRQAPGKERELVAAITAIGDRTYYADSVKGRFTISRDNAKNTVYLQMKSLKQEDTAVYYCNVTPRRAQVRIGNYWGQGTQVTVSS
- polyreactivity (PSR sort gate): high polyreactivity

Sequence: QVQLVESGGGLVQAGGSLRLSCAASGLTFRPYTMGWYRQAPAKERELVAAISARGGRTYYADSVKGRFTISRDNAKNTVYLQMNSLKPEDTAVYYCATLETTGVNYWGQGTQVTVSS
- polyreactivity (PSR sort gate): high polyreactivity

Sequence: QVQLVESGGGLVQAGGSLRLSCAASGLTFRQYAMGWYRQAPGKERELVAAITNGGRTYYADSVKGRFTISRDNAKNTVYLQMNSLKPEDTAVYYCAAYVPTFKDRSRWYGRKYDYWGQGTQVTVSS
- polyreactivity (PSR sort gate): low polyreactivity

Sequence: QVQLVESGGGLVQAGGSLRLSCAASGLTFRRYTMGWYRQAPGKERECVAAIRTSGGSTSYADSVKGRFTISRDNAKNTVYLQMNSLKPEDTAVYYCAADYGGTSYVRGTVGRKYDYWGQGTQVTVSS
- polyreactivity (PSR sort gate): high polyreactivity

Sequence: QVQLVESGGGLVQAGGSLRLSCAASGLTFRVNDMGWYRQAPGKERELVATISSGGSTYYADSVKGRFTISRDNAKNTVYLQMNSLKPEDTAVYYCATNSEGQESNSYYVWMGYWGQGTHVTVSS
- polyreactivity (PSR sort gate): low polyreactivity

Sequence: QVQLVESGGGLVQAGGSLRLSCAASGLTFRWYAMGWYRQAPGKEREWVAAISSGGRTYYADSVKGRFTISRDNAKNTVYLHMNSLKPEDTAVYYCNKRTLDYGFGSYGRDYWGQGTQVTVSS
- polyreactivity (PSR sort gate): high polyreactivity

Sequence: QVQLVESGGGLVQAGGSLRLSCAASGLTFRYYAMGWDRPAPGKERELVAAITASVGSTYYADSVKGRFTISRDNAKNTVYLQMNSLNPEDTAVYYCNADLSYFFGPYWGLYGLDYWGQGTQVTVSS
- polyreactivity (PSR sort gate): low polyreactivity

Sequence: QVQLVESGGGLVQAGGSLRLSCAASGLTFRYYAMGWYIQAPGKERELVATITATDGSTYYADSVKGRFTISRDNAKNTVYLQMNSLKPEDTAVYYRAKTYTEYSVTRSGARMDYWGQGTQVTVSS
- polyreactivity (PSR sort gate): low polyreactivity

Sequence: QVQLVESGGGLVQAGGSLRLSCAASGLTFRYYAMGWYRQAPGKERELVAAITRRGSTYYADSVKGRFTISRDNAKNTVYLQMNSLKPEDTAVYFCATVTGFHSSPLRDLDYWGHGTQVTVSS
- polyreactivity (PSR sort gate): high polyreactivity

Sequence: QVQLVESGGGLVQAGGSLRLSCAASGLTFSDYAMGWYRQAPGKERELVAGISSGGSTYYADSVKGRFTISRDNAENTVYLQMNSLKPEDTAVYYCAATRYNRWPIKFDYWGQGTQVTVSS
- polyreactivity (PSR sort gate): high polyreactivity

Sequence: QVQLVESGGGLVQAGGSLRLSCAASGLTFSKYAMGWYRQAPGKERELVAAITRGDRTYYSDSVRGRFTISRDNAKNTVYLQMNRLKPEDTAVYYCAARQYYWGQGTQVTVSS
- polyreactivity (PSR sort gate): high polyreactivity

Sequence: QVQLVESGGGLVQAGGSLRLSCAASGLTFSPNAMGWYRQAPGKERELVAAITRSGSTTHYADSVKGRFTISRDNAKNTVYLQMNSLKPEDTAVYYCARRYYGPYDYWGQGTQVTVSS
- polyreactivity (PSR sort gate): high polyreactivity

Sequence: QVQLVESGGGLVQAGGSLRLSCAASGLTFSQNAMGWNRQPPGKERELVGAITRSGSTTHYADSVKGRFTISRDKAKNTVYLQMNSLKPEDTAVYYCAAVAFQTRYYYWGQGTQVTLSS
- polyreactivity (PSR sort gate): high polyreactivity

Sequence: QVQLVESGGGLVQAGGSLRLSCAASGLTFSRYAMGWYRQAPGKERELVAAISSRSGSTFYADSVKGRFTISRDNAKNTVYLQMNSLKPEDTAVYYCAARRDWLGGYWGQGTQVTVSS
- polyreactivity (PSR sort gate): high polyreactivity

Sequence: QVQLVESGGGLVQAGGSLRLSCAASGLTFSSYAMGWYRQAPGKERELVAAISLSGGRTYYADSVKGRFTISRDNAKNTVYLQMNSLKPEDTAVYYCAARRPNLQHANDYWGQGTQVTVSS
- polyreactivity (PSR sort gate): high polyreactivity

Sequence: QVQLVESGGGLVQAGGSLRLSCAASGLTFSSYAMGWYRQAPGKERELVAAITRGGRTQYADSVKGRFTISRDNAKNTVYLQMNSLKPEDTAVYYCARSGNYYYWGQGTQVTVSS
- polyreactivity (PSR sort gate): high polyreactivity

Sequence: QVQLVESGGGLVQAGGSLRLSCAASGLTFSYNAMGWYIQAPGTERELVAAINWSGGSTYYADSVKGRFTISRDNAKNTVYLPMNSLKPEDTAVYYCAADIYSKGGRGLYYWGQGTQLTVSS
- polyreactivity (PSR sort gate): high polyreactivity

Sequence: QVQLVESGGGLVQAGGSLRLSCAASGLTFSYYAMGWYRQAPGKERELVAAISITGSTNYADSVKGRFTISRDNAKNTVYLQMNSLKPEDTAVYYCAARRSLSVLPYYYWGQGTQVTVSS
- polyreactivity (PSR sort gate): high polyreactivity

Sequence: QVQLVESGGGLVQAGGSLRLSCAASGLTFSYYTMGCYRQAPGKERELVARISNRGTNTYYADSVKGRFTISRDNAKNTVYLQMNSLKPEDTAVYYCAKYYYTSIVGYDSWGQGTQVTVSS
- polyreactivity (PSR sort gate): low polyreactivity

Sequence: QVQLVESGGGLVQAGGSLRLSCAASGLTFTGYAMGWYRQAPGKERELVAAISSRGGSTYYADSVKGRFTISRDTAKNTVYLQMNRLKPEDTAVYYCNAVVVVGRRDYWGQGTQVTVSS
- polyreactivity (PSR sort gate): high polyreactivity

Sequence: QVQLVESGGGLVQAGGSLRLSCAASGLTFTTYAMGWYRQAPGKERELVAAISRRGSRTYYADSVKGRFTISRDNAKNTVYLQMNSLKPEDTAVYYCNALTGSFKTYSFDYWGQGTQVTVSS
- polyreactivity (PSR sort gate): high polyreactivity

Sequence: QVQLVESGGGLVQAGGSLRLSCAASGLTFVDNAMGWYRQAPGKERELVAAISFRDGSTYYADSVKGRFTISRDNAKNTVYLQMNSLKPEDTAVYYCAAVGQTHPTSPLSTKYDYWGQGTQVTVSS
- polyreactivity (PSR sort gate): low polyreactivity

Sequence: QVQLVESGGGLVQAGGSLRLSCAASGLTFVDNAMGWYRQAPGKERELVAAISYNGGSTYYADSVKGRFTISRDNAKNTVYFQINSLKPEDTAVYYCAADISVGRYVDMDYWGQGTKVTVSS
- polyreactivity (PSR sort gate): low polyreactivity

Sequence: QVQLVESGGGLVQAGGSLRLSCAASGLTFVDYAMGWYRQAPGKERELVAAISWSGGSTYYADSVKGRFTISRDIAKNTVYLQMNSLKPEDTAVYYCAAETQGWYPWGFYWGQCTQVTVSS
- polyreactivity (PSR sort gate): low polyreactivity

Sequence: QVQLVESGGGLVQAGGSLRLSCAASGLTFVDYDMGWYRQAPGKERELVADINSGGYTYYADSVKGRFTISRDNAKNTVYLQMNSLKPEDTAVYYCAADDGWGYISSYDYEYWGQGTQVTVSS
- polyreactivity (PSR sort gate): high polyreactivity

Sequence: QVQLVESGGGLVQAGGSLRLSCAASGLTFVFYAMGWYRQAPGKERELVAAISRRGGRTYYADSVKGRYTISRDNAKNTVYVQMNSLKPEDTAVYYCNARVRSHRCNYWGQGTQVTVSS
- polyreactivity (PSR sort gate): high polyreactivity

Sequence: QVQLVESGGGLVQAGGSLRLSCAASGLTFVGNAMGWYRQAPGKERELVASITIGTSTYYADSVKGRFTISRDNAKNTVYLQMNRLKPEDTAVYYCAAEEVFQVYGLALIYDYWGQGTQVTVSS
- polyreactivity (PSR sort gate): high polyreactivity

Sequence: QVQLVESGGGLVQAGGSLRLSCAASGLTFVKNAMGLYRQAPRKERELVATISSGGSTNYADSVKGRFTISRDNAKNTVYLQMNSLKPEETAVYYCNKDYTGVLLWIWWDRYDYWGQGTQVTVSS
- polyreactivity (PSR sort gate): high polyreactivity

Sequence: QVQLVESGGGLVQAGGSLRLSCAASGLTFVKYAMGWYRPAPGKERELVAAISRSGGRTYYADSVKGRFTISRDNAKNTVYLQMNSLKPEDTAVYYCNADHVRGNHGYDYWGQGTQVTVSS
- polyreactivity (PSR sort gate): high polyreactivity
